To fix the notation:
T1: human amylin receptor (amylin 3(a) receptor: human calcitonin receptor with RAMP-3) (human, UniProt P30988 25-474; O60896 24-148)
T1 construct: whole, on cells; also called hAmylin-R; hAmylinR
T1 sequence (looked up) 1: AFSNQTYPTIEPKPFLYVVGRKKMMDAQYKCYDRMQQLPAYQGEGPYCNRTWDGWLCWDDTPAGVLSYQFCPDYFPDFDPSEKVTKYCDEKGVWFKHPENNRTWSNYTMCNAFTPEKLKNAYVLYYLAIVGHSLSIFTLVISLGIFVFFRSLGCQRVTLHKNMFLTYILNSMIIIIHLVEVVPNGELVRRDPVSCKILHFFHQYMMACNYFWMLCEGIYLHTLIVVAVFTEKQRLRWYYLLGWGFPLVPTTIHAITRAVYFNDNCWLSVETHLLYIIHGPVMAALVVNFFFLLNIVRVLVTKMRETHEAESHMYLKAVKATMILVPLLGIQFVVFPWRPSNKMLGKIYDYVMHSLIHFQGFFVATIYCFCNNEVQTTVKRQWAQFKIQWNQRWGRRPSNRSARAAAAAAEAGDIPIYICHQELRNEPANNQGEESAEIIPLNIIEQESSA
T1 sequence (looked up) 2: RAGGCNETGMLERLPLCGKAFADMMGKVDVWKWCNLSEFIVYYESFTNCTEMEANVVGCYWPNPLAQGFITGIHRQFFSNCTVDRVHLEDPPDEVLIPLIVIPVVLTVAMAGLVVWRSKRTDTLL

B1: N^ε1-[(4S)-4-carboxy-4-[[(4S)-4-carboxy-4-(19-carboxynonadecanoylamino)butanoyl]amino]butanoyl]-[His14,Arg17,Pro21,Pro27]-h-amylin (peptide)
peptide: K([γGlu-γGlu-C20 diacid])CNTATCATQRLAHFLRHSSPNFGAIPSSTNVGSNTY-NH2
modifications: disulfide 2-7; N-terminus assumed
SMILES: CC[C@H](C)[C@H](NC(=O)[C@H](C)NC(=O)CNC(=O)[C@H](Cc1ccccc1)NC(=O)[C@H](CC(N)=O)NC(=O)[C@@H]1CCCN1C(=O)[C@H](CO)NC(=O)[C@H](CO)NC(=O)[C@H](Cc1c[nH]cn1)NC(=O)[C@H](CCCNC(=N)N)NC(=O)[C@H](CC(C)C)NC(=O)[C@H](Cc1ccccc1)NC(=O)[C@H](Cc1c[nH]cn1)NC(=O)[C@H](C)NC(=O)[C@H](CC(C)C)NC(=O)[C@H](CCCNC(=N)N)NC(=O)[C@H](CCC(N)=O)NC(=O)[C@@H](NC(=O)[C@H](C)NC(=O)[C@@H]1CSSC[C@H](NC(=O)[C@@H](N)CCCCNC(=O)CC[C@H](NC(=O)CC[C@H](NC(=O)CCCCCCCCCCCCCCCCCCC(=O)O)C(=O)O)C(=O)O)C(=O)N[C@@H](CC(N)=O)C(=O)N[C@@H]([C@@H](C)O)C(=O)N[C@@H](C)C(=O)N[C@@H]([C@@H](C)O)C(=O)N1)[C@@H](C)O)C(=O)N1CCC[C@H]1C(=O)N[C@@H](CO)C(=O)N[C@@H](CO)C(=O)N[C@H](C(=O)N[C@@H](CC(N)=O)C(=O)N[C@H](C(=O)NCC(=O)N[C@@H](CO)C(=O)N[C@@H](CC(N)=O)C(=O)N[C@H](C(=O)N[C@@H](Cc1ccc(O)cc1)C(N)=O)[C@@H](C)O)C(C)C)[C@@H](C)O
notes: also called 92; compound 92
B2: N^ε1N^ε1-[(4S)-4-carboxy-4-(19-carboxynonadecanoylamino)butanoyl]-[His14,Arg17,Pro21,Pro27,Pro34]-h-amylin (peptide)
peptide: K([γGlu-C20 diacid])CNTATCATQRLAHFLRHSSPNFGAIPSSTNVGPNTY-NH2
modifications: disulfide 2-7; N-terminus assumed
SMILES: CC[C@H](C)[C@H](NC(=O)[C@H](C)NC(=O)CNC(=O)[C@H](Cc1ccccc1)NC(=O)[C@H](CC(N)=O)NC(=O)[C@@H]1CCCN1C(=O)[C@H](CO)NC(=O)[C@H](CO)NC(=O)[C@H](Cc1c[nH]cn1)NC(=O)[C@H](CCCNC(=N)N)NC(=O)[C@H](CC(C)C)NC(=O)[C@H](Cc1ccccc1)NC(=O)[C@H](Cc1c[nH]cn1)NC(=O)[C@H](C)NC(=O)[C@H](CC(C)C)NC(=O)[C@H](CCCNC(=N)N)NC(=O)[C@H](CCC(N)=O)NC(=O)[C@@H](NC(=O)[C@H](C)NC(=O)[C@@H]1CSSC[C@H](NC(=O)[C@@H](N)CCCCNC(=O)CC[C@H](NC(=O)CCCCCCCCCCCCCCCCCCC(=O)O)C(=O)O)C(=O)N[C@@H](CC(N)=O)C(=O)N[C@@H]([C@@H](C)O)C(=O)N[C@@H](C)C(=O)N[C@@H]([C@@H](C)O)C(=O)N1)[C@@H](C)O)C(=O)N1CCC[C@H]1C(=O)N[C@@H](CO)C(=O)N[C@@H](CO)C(=O)N[C@H](C(=O)N[C@@H](CC(N)=O)C(=O)N[C@H](C(=O)NCC(=O)N1CCC[C@H]1C(=O)N[C@@H](CC(N)=O)C(=O)N[C@H](C(=O)N[C@@H](Cc1ccc(O)cc1)C(N)=O)[C@@H](C)O)C(C)C)[C@@H](C)O
notes: also called 67; compound 67
B3: N{Alpha-1}-[(4S)-4-carboxy-4-(19-carboxynonadecanoylamino)butanoyl]-[Glu14,Arg17,Pro21,Pro27,Lys34]-h-amylin (peptide)
peptide: {C20 diacid-γGlu}-KCNTATCATQRLAEFLRHSSPNFGAIPSSTNVGKNTY-NH2
modifications: disulfide 2-7
SMILES: CC[C@H](C)[C@H](NC(=O)[C@H](C)NC(=O)CNC(=O)[C@H](Cc1ccccc1)NC(=O)[C@H](CC(N)=O)NC(=O)[C@@H]1CCCN1C(=O)[C@H](CO)NC(=O)[C@H](CO)NC(=O)[C@H](Cc1c[nH]cn1)NC(=O)[C@H](CCCNC(=N)N)NC(=O)[C@H](CC(C)C)NC(=O)[C@H](Cc1ccccc1)NC(=O)[C@H](CCC(=O)O)NC(=O)[C@H](C)NC(=O)[C@H](CC(C)C)NC(=O)[C@H](CCCNC(=N)N)NC(=O)[C@H](CCC(N)=O)NC(=O)[C@@H](NC(=O)[C@H](C)NC(=O)[C@@H]1CSSC[C@H](NC(=O)[C@H](CCCCN)NC(=O)CC[C@H](NC(=O)CCCCCCCCCCCCCCCCCCC(=O)O)C(=O)O)C(=O)N[C@@H](CC(N)=O)C(=O)N[C@@H]([C@@H](C)O)C(=O)N[C@@H](C)C(=O)N[C@@H]([C@@H](C)O)C(=O)N1)[C@@H](C)O)C(=O)N1CCC[C@H]1C(=O)N[C@@H](CO)C(=O)N[C@@H](CO)C(=O)N[C@H](C(=O)N[C@@H](CC(N)=O)C(=O)N[C@H](C(=O)NCC(=O)N[C@@H](CCCCN)C(=O)N[C@@H](CC(N)=O)C(=O)N[C@H](C(=O)N[C@@H](Cc1ccc(O)cc1)C(N)=O)[C@@H](C)O)C(C)C)[C@@H](C)O
notes: also called 36; compound 36
B4: N^ε1-[(4S)--4-carboxy-4-(19-carboxynonadecanoylamino)butanoyl]-[Glu14,Arg17,Pro21,Pro27,Pro37]-h-amylin (peptide)
peptide: K([γGlu-C20 diacid])CNTATCATQRLAEFLRHSSPNFGAIPSSTNVGSNTP-NH2
modifications: disulfide 2-7; N-terminus assumed
SMILES: CC[C@H](C)[C@H](NC(=O)[C@H](C)NC(=O)CNC(=O)[C@H](Cc1ccccc1)NC(=O)[C@H](CC(N)=O)NC(=O)[C@@H]1CCCN1C(=O)[C@H](CO)NC(=O)[C@H](CO)NC(=O)[C@H](Cc1c[nH]cn1)NC(=O)[C@H](CCCNC(=N)N)NC(=O)[C@H](CC(C)C)NC(=O)[C@H](Cc1ccccc1)NC(=O)[C@H](CCC(=O)O)NC(=O)[C@H](C)NC(=O)[C@H](CC(C)C)NC(=O)[C@H](CCCNC(=N)N)NC(=O)[C@H](CCC(N)=O)NC(=O)[C@@H](NC(=O)[C@H](C)NC(=O)[C@@H]1CSSC[C@H](NC(=O)[C@@H](N)CCCCNC(=O)CC[C@H](NC(=O)CCCCCCCCCCCCCCCCCCC(=O)O)C(=O)O)C(=O)N[C@@H](CC(N)=O)C(=O)N[C@@H]([C@@H](C)O)C(=O)N[C@@H](C)C(=O)N[C@@H]([C@@H](C)O)C(=O)N1)[C@@H](C)O)C(=O)N1CCC[C@H]1C(=O)N[C@@H](CO)C(=O)N[C@@H](CO)C(=O)N[C@H](C(=O)N[C@@H](CC(N)=O)C(=O)N[C@H](C(=O)NCC(=O)N[C@@H](CO)C(=O)N[C@@H](CC(N)=O)C(=O)N[C@H](C(=O)N1CCC[C@H]1C(N)=O)[C@@H](C)O)C(C)C)[C@@H](C)O
notes: also called 12; compound 12
B5: N^ε21-[(4S)-4-carboxy-4-[[(4S)-4-carboxy-4-(19-carboxynonadecanoylamino)butanoyl]amino]butanoyl]-[Asp14,Arg17,Lys21,Pro27,Asp35]-h-amylin (peptide)
peptide: KCNTATCATQRLADFLRHSSK([γGlu-γGlu-C20 diacid])NFGAIPSSTNVGSDTY-NH2
modifications: disulfide 2-7; N-terminus assumed
SMILES: CC[C@H](C)[C@H](NC(=O)[C@H](C)NC(=O)CNC(=O)[C@H](Cc1ccccc1)NC(=O)[C@H](CC(N)=O)NC(=O)[C@H](CCCCNC(=O)CC[C@H](NC(=O)CC[C@H](NC(=O)CCCCCCCCCCCCCCCCCCC(=O)O)C(=O)O)C(=O)O)NC(=O)[C@H](CO)NC(=O)[C@H](CO)NC(=O)[C@H](Cc1c[nH]cn1)NC(=O)[C@H](CCCNC(=N)N)NC(=O)[C@H](CC(C)C)NC(=O)[C@H](Cc1ccccc1)NC(=O)[C@H](CC(=O)O)NC(=O)[C@H](C)NC(=O)[C@H](CC(C)C)NC(=O)[C@H](CCCNC(=N)N)NC(=O)[C@H](CCC(N)=O)NC(=O)[C@@H](NC(=O)[C@H](C)NC(=O)[C@@H]1CSSC[C@H](NC(=O)[C@@H](N)CCCCN)C(=O)N[C@@H](CC(N)=O)C(=O)N[C@@H]([C@@H](C)O)C(=O)N[C@@H](C)C(=O)N[C@@H]([C@@H](C)O)C(=O)N1)[C@@H](C)O)C(=O)N1CCC[C@H]1C(=O)N[C@@H](CO)C(=O)N[C@@H](CO)C(=O)N[C@H](C(=O)N[C@@H](CC(N)=O)C(=O)N[C@H](C(=O)NCC(=O)N[C@@H](CO)C(=O)N[C@@H](CC(=O)O)C(=O)N[C@H](C(=O)N[C@@H](Cc1ccc(O)cc1)C(N)=O)[C@@H](C)O)C(C)C)[C@@H](C)O
notes: also called 59; compound 59

Numbered stars: 1 amine (or outer) side, 2 acyl side, 3 side chain; on linkers, the order of the positions; unused ones are H or OH. Bridge positions count the residues as written; N and C are the ends. Side chains are listed from the residue outwards. Ends that are not written are not given here. * marks the point of attachment. C20 diacid = O=C(O)CCCCCCCCCCCCCCCCCCC(=O)*; γGlu = O=C(O)[C@H](CCC(=O)[*:2])N[*:1]

In the assay the target is T1, human amylin receptor (amylin 3(a) …). Put plainly: SPA displacement of 125I-rat amylin, hAmylin 3(a) receptor membranes. In short, it runs like this: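 Membranes from BHK Amylin 3(a)/CRE-luc cells (35 ng/μL final) were mixed with SPA beads and test compounds in 50 mM Hepes pH 7.4 with 1 mM CaCl2, 5 mM MgCl₂, 0.1% OA and 0.02% Tween20. Incubation ran 120 min at 25° C with shaking; IC₅₀ came from one-site competition fitting.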
Turning to B1, the half-maximal inhibitory concentration (IC50) was 0.179 nM. The figure for B2 is 0.09 nM; for B3 it is 0.403 nM; for B4 it is 0.142 nM. With B5, the IC50 came out at 1.19 nM.

The values are drawn from US20140087995A1 (published 2014).
